# According to publication PMC5379210 (Scientific Reports, 2017):
# Positions count from the first letter of the chain named. Names and notes keep the numbering of the source.
# B1: S. cerevisiae Gpi8 (23-306aa), caspase-like domain, insect cell expressed (N-glycosylated) (domain or fragment, UniProt P49018 23-306, looked up)
# chain: NNTDAAHEVIATNTNNWAVLVSTSRFWFNYRHMANVLSMYRTVKRLGIPDSQIILMLSDDVACNSRNLFPGSVFNNKDHAIDLYGDSVEVDYRGYEVTVENFIRLLTDRWTEDHPKSKRLLTDENSNIFIYMTGHGGDDFLKFQDAEEIASEDIADAFQQMYEKKRYNEIFFMIDTCQANTMYSKFYSPNILAVGSSEMDESSYSHHSDVEIGVAVIDRFTYYCLDFLEQIDKNSTLTLQDLFDSFTFEKIHSHVGVRTDLFDRNPSEVLITDFFANVQNVIPD
# modifications: N-glycosylated (two predicted N-glycosylation sites in 23-306)
# notes: The construct has an N-terminal gp67 signal peptide for secretion (pFastBac-dual); Runs as a disulfide-linked dimer; also called insect cell expressed Gpi8; not shown: 6xHis, C-terminal, kept
# B2: S. cerevisiae Gpi8 (23-306aa), insect cell expressed in the presence of tunicamycin (nonglycosylated) (domain or fragment, UniProt P49018 23-306, looked up)
# chain: B1 chain
# notes: N-terminal gp67 signal peptide in the construct; also called nonglycosylated Gpi8; insect cell expressed Gpi8 in the presence of tunicamycin
# B3: S. cerevisiae Gpi8 (23-306aa), E. coli BL21 expressed (domain or fragment, UniProt P49018 23-306, looked up)
# chain: B1 chain
# notes: Cloned into NdeI-XhoI sites of pET26a (so in the source); also called E. coli expressed Gpi8
# B4: S. cerevisiae Gpi8 (23-306aa), E. coli SHuffle expressed (domain or fragment, UniProt P49018 23-306, looked up)
# chain: B1 chain
# notes: Same construct as m12, other E. coli strain (constitutively expresses DsbC); also called E. coli Shuffle-expressed Gpi8
# B5: S. cerevisiae Gpi8 (23-306aa) C199A (domain or fragment, UniProt P49018 23-306, looked up)
# chain: B1 chain with C177A
# B6: S. cerevisiae Gpi8 (23-306aa) C246A (domain or fragment, UniProt P49018 23-306, looked up)
# chain: B1 chain with C224A
# notes: the methods print Cys244Ala
# B7: S. cerevisiae Gpi8 (23-359aa) (domain or fragment, UniProt P49018 23-359, looked up)
# chain: NNTDAAHEVIATNTNNWAVLVSTSRFWFNYRHMANVLSMYRTVKRLGIPDSQIILMLSDDVACNSRNLFPGSVFNNKDHAIDLYGDSVEVDYRGYEVTVENFIRLLTDRWTEDHPKSKRLLTDENSNIFIYMTGHGGDDFLKFQDAEEIASEDIADAFQQMYEKKRYNEIFFMIDTCQANTMYSKFYSPNILAVGSSEMDESSYSHHSDVEIGVAVIDRFTYYCLDFLEQIDKNSTLTLQDLFDSFTFEKIHSHVGVRTDLFDRNPSEVLITDFFANVQNVIPDDSKPLSVSHYHHYKDHIDTAQYELNNNVLDLALETYRKNNQSSKIEKKIKDIK
# notes: S. cerevisiae Gpi8, C-terminal truncation of the luminal domain, residues 23-359; also called S. cerevisiae Gpi8 (23-359aa)^BL21
# B8: S. cerevisiae Gpi8 (23-379aa) C373A (domain or fragment, UniProt P49018 23-379, looked up)
# chain: NNTDAAHEVIATNTNNWAVLVSTSRFWFNYRHMANVLSMYRTVKRLGIPDSQIILMLSDDVACNSRNLFPGSVFNNKDHAIDLYGDSVEVDYRGYEVTVENFIRLLTDRWTEDHPKSKRLLTDENSNIFIYMTGHGGDDFLKFQDAEEIASEDIADAFQQMYEKKRYNEIFFMIDTCQANTMYSKFYSPNILAVGSSEMDESSYSHHSDVEIGVAVIDRFTYYCLDFLEQIDKNSTLTLQDLFDSFTFEKIHSHVGVRTDLFDRNPSEVLITDFFANVQNVIPDDSKPLSVSHYHHYKDHIDTAQYELNNNVLDLALETYRKNNQSSKIEKKIKDIKSTSVLDVDIDSNEAFFTSFK
# notes: S. cerevisiae Gpi8, full-length luminal construct, residues 23-379, with C373A; also called C373A mutant
# How the values were obtained:
# [1] = target: S. cerevisiae Gpi8 (23-337aa) (S. cerevisiae) (UniProt P49018); experiment: SEC; single purified protein on Superdex 200 10/300 GL, 20 mM Tris-HCl pH 8, 150 mM NaCl, purified without reducing agent (non-reducing) or with 2.5 mM DTT; re-runs of peaks; dimer to monomers
# [2] = target: S. cerevisiae Gpi8 (23-306aa) C85A (S. cerevisiae) (UniProt P49018); experiment: SEC-MALS; C85A mutant under reducing conditions
# [3] = target: S. cerevisiae Gpi8 (23-306aa) C85A (S. cerevisiae) (UniProt P49018); experiment: SEC; single purified protein on Superdex 200 10/300 GL, 20 mM Tris-HCl pH 8, 150 mM NaCl, purified without reducing agent (non-reducing) or with 2.5 mM DTT; re-runs of peaks; dimer to monomers
# [4] = target: the molecule itself; experiment: as above
Molecule,stoichiometry N [4],also measured
S. cerevisiae Gpi8 (23-337aa) (from UniProt P49018 23-337) (domain or fragment),–,stoichiometry N [1]: 2
S. cerevisiae Gpi8 (23-306aa) C85A (from UniProt P49018 23-306) (domain or fragment),–,stoichiometry N [2]: 2; stoichiometry N [3]: 2
B1,2,–
B2,2,–
B3,2,–
B4,2,–
B5,2,–
B6,2,–
B7,2,–
B8,2,–
